In series [1] the target is T1, E. coli SSB (single-stranded DNA binding protein), wild type (E. coli, UniProt P0AGE0 1-178).
T1 construct: also called wt SSB; source: purified as described [13]
The experiment in a line: far-Western; purified SSB wt or mutant (0.5-5 µg) separated on 15% SDS-PAGE, blotted to PVDF, probed with 20-30 µg YbcN or Orf fused to MBP or GST; detected with anti-MBP or anti-GST antibodies. As to conditions: both partners purified.

Series [2] deals with the molecule itself. The experiment in a line: SEC; 1 mg/ml protein on a 24 ml Superose 6HR 10/30 column in 20 mM Tris-HCl pH8, 1 mM EDTA, 0.5 mM DTT, 250 mM KCl. Background: In gel filtration, larger molecules generally elute earlier.
Series [3] addresses T1, E. coli SSB (single-stranded DNA …). The series can be described thus: ELISA; SSB wt or mutant (0.5 µg) bound to the microtitre plate in PBS, GST fusion added for 1 hr at 37°C, detected with HRP-anti-GST antibody, A620nm. As to conditions: both partners purified.
Series [4] concerns the molecule itself. The experiment in a line: SDS-PAGE of unboiled samples; purified protein on 12.5% SDS-PAGE without boiling and without a reducing agent, Coomassie blue.
Series [5] deals with the molecule itself. The series can be described thus: static light scattering; 0.2 mg/ml protein in 100 mM Tris-HCl pH 7 at 25°C, Zetasizer µV; mass estimated for a spherical particle.
Series [6] deals with the molecule itself. The experiment in a line: SEC; 1 mg/ml protein on a 24 ml Superose 12 HR 10/30 column in 20 mM Tris-HCl pH 8.0, 1 mM EDTA, 0.5 mM DTT, 150 mM KCl.
Series [7] concerns the target T2, MBP-Orf Q45A (Bacteriophage lambda, UniProt P03765 1-146, Q45A).
T2 sequence: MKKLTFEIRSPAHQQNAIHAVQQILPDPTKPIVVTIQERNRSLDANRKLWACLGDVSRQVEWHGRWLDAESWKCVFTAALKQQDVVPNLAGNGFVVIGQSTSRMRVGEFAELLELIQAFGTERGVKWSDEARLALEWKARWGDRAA
The series can be described thus: fluorescence anisotropy; apparent, per dimer; EMSA: 50 mM Tris-HCl pH 8.0, 5 mM EDTA (or 1 mM MgCl2), 1 mM DTT, 5% glycerol, 100 ug/ml BSA, on ice 15 min, 4% PAGE; anisotropy: 100 mM Tris-HCl pH 7.0, 10 nM. As to conditions: protein: recombinant, tags: N-terminal MBP, chain copies: 2. (In general: In fluorescence polarisation assays a small probe gives low polarisation when free and higher when bound to something large.)

Series [8] concerns the target T3, MBP-Orf V106E (Bacteriophage lambda, UniProt P03765 1-146, V106E).
T3 sequence: T2 sequence with A45Q, V106E
The description is as above. The conditions noted are these: protein: recombinant, tags: N-terminal MBP, chain copies: 2.

Series [9] deals with T4, MBP-YbcN (Escherichia coli cryptic prophage DLP12 …, UniProt Q47269 1-151).
T4 sequence: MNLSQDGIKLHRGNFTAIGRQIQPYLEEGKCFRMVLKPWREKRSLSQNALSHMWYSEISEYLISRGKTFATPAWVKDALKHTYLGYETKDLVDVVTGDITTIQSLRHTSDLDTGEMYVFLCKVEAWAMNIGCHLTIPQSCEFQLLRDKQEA
The description is as above. As to conditions: protein: recombinant, tags: N-terminal MBP, chain copies: 2.

Series [10] deals with T5, MBP-Orf K48A (Bacteriophage lambda, UniProt P03765 1-146, K48A).
T5 sequence: T2 sequence with A45Q, K48A
Described as above. As to conditions: protein: recombinant, tags: N-terminal MBP, chain copies: 2.

Series [11] has as its target T6, MBP-Orf (Bacteriophage lambda, UniProt P03765 1-146).
T6 sequence: T2 sequence with A45Q
The description is as above. The conditions noted are these: protein: recombinant, tags: N-terminal MBP, chain copies: 2.

Series [12] concerns the target T7, MBP-Orf W137A (Bacteriophage lambda, UniProt P03765 1-146, W137A).
T7 sequence: T2 sequence with A45Q, W137A
Described as above. The conditions noted are these: protein: recombinant, tags: N-terminal MBP, chain copies: 2.

Series [13] addresses T8, MBP-Orf W50A (Bacteriophage lambda, UniProt P03765 1-146, W50A).
T8 sequence: T2 sequence with A45Q, W50A
The description is as above. The conditions noted are these: protein: recombinant, tags: N-terminal MBP, chain copies: 2.

For series [14], the target named is T9, MBP-Orf R103E (Bacteriophage lambda, UniProt P03765 1-146, R103E).
T9 sequence: T2 sequence with A45Q, R103E
The series can be described thus: fluorescence anisotropy; dash in table; most severely deficient; EMSA: 50 mM Tris-HCl pH 8.0, 5 mM EDTA (or 1 mM MgCl2), 1 mM DTT, 5% glycerol, 100 ug/ml BSA, on ice 15 min, 4% PAGE; anisotropy: 100 mM Tris-HCl pH 7.0, 10 nM. As to conditions: protein: recombinant, tags: N-terminal MBP, chain copies: 2.

Series [15] addresses T6, MBP-Orf. The experiment in a line: EMSA; 5 mM EDTA; better than DS60; EMSA: 50 mM Tris-HCl pH 8.0, 5 mM EDTA (or 1 mM MgCl2), 1 mM DTT, 5% glycerol, 100 ug/ml BSA, on ice 15 min, 4% PAGE; anisotropy: 100 mM Tris-HCl pH 7.0, 10 nM. As to conditions: protein: recombinant, tags: N-terminal MBP, chain copies: 2, label: 5'-32P on strand 1, blunt. A general note: In EMSA bound probe runs differently from free probe, usually more slowly.

[16] abbreviates: label: 3'-fluorescein, single strand.
Setting [17] is: label: 3'-fluorescein on strand 1, blunt, central 20 nt bubble.

Residue numbers refer to the chain shown, from its start. Names may count otherwise. “And” between values parts separate entries of the source, which are not always exact repeats. Equal values may be shown once.

The stoichiometry N is the number of molecules, sites or subunits per partner or assembly.

T1 sequence (P0AGE0 whole entry): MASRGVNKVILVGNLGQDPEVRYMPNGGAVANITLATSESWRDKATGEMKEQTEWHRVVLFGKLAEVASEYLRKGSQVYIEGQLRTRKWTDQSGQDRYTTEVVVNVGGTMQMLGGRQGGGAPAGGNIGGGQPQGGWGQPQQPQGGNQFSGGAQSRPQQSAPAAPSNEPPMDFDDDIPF

B1: MBP-YbcN (E. coli maltose binding protein fused to the N-terminus of DLP12 YbcN) (natural protein, E. coli (cryptic prophage DLP12), UniProt Q47269 1-151, looked up)
chain: T4 sequence
notes: YbcN (orf151), Orf-family protein of E. coli cryptic prophage DLP12; the gene was amplified from AB1157 genomic DNA, forward primer at the ATG; predicted monomer of the MBP fusion 60.4 kDa; Construct in pMALc2; also called DLP12 MBP-YbcN; orf151; source: E. coli DH5α or BL21 (DE3) Rosetta carrying pLB101, purified (amylose; additional stocks amylose and heparin agarose)
Turning to B1, the binding result in series [1] is recorded as “binds”. Moreover, in [2], the “stoichiometry N” value was determined as 2.

B2: GST-YbcN (N-terminal glutathione S-transferase fusion of DLP12 YbcN) (natural protein, E. coli (cryptic prophage DLP12), UniProt Q47269 1-151, looked up)
chain: T4 sequence
notes: YbcN (orf151), Orf-family protein of E. coli cryptic prophage DLP12; insert of pLB101 moved into pGEX-6P-1; predicted monomer of the GST fusion 44.6 kDa; higher oligomers are put down to dimer-dimer combinations; also called DLP12 GST-YbcN; source: E. coli BL21 Codon Plus carrying pLB108, purified (glutathione sepharose, heparin agarose, Q sepharose); not shown: GST, N-terminal, kept
Consider B2, for which the binding result in series [3] is “binds”. Further, the “stoichiometry N” value in [4] was found to be 4.

B3: MBP-Orf (bacteriophage λ Orf fused to maltose binding protein), wild type (natural protein)
chain: T2 sequence with A45Q
notes: Orf (NinB) of bacteriophage λ, a 17 kDa protein; predicted MBP-Orf monomer 59.6 kDa; also called Orf wt; λ MBP-Orf; source: purified as described [13]
B3: the binding result in series [5] and in [1] was “binds” throughout.

B4: MBP-Orf V106E (natural protein, bacteriophage λ)
chain: T2 sequence with A45Q, V106E
notes: Orf (NinB) of bacteriophage λ with V106E; Mutant derivative in pMALc2; Tends to form multimers or aggregates; source: E. coli BL21-AI carrying the pMALc2 construct, purified (amylose, heparin-agarose)
On to B4, for which the “stoichiometry N” value in series [6] was 2 and 4. Also, in series [1], the binding result is “binds”.

B5: MBP-Orf W137A (natural protein, bacteriophage λ)
chain: T2 sequence with A45Q, W137A
notes: Orf (NinB) of bacteriophage λ with W137A; Mutant derivative in pMALc2; source: E. coli BL21-AI carrying the pMALc2 construct, purified (amylose) as described [13]
Take B5: the “stoichiometry N” value in series [6] turned out to be 2. Also, the binding result in series [1] was “binds”.

B6: MBP-Orf Q45A (natural protein, bacteriophage λ)
chain: T2 sequence
notes: Orf (NinB) of bacteriophage λ with Q45A; Mutant derivative in pMALc2; source: E. coli BL21-AI carrying the pMALc2 construct, purified (amylose, heparin-agarose)
As for B6, in [6], the “stoichiometry N” value was determined as 2. Besides, the binding result in series [1] is on record as “binds”.

B7: MBP-Orf W50A (natural protein, bacteriophage λ)
chain: T2 sequence with A45Q, W50A
notes: Orf (NinB) of bacteriophage λ with W50A; Mutant derivative in pMALc2; source: E. coli BL21-AI carrying the pMALc2 construct, purified (amylose, heparin-agarose)
As for B7, the “stoichiometry N” value in series [6] worked out at 2. Moreover, the binding result in [1] is reported as “binds”.

B8: MBP-Orf K48A (natural protein, bacteriophage λ)
chain: T2 sequence with A45Q, K48A
notes: Orf (NinB) of bacteriophage λ with K48A; Mutant derivative in pMALc2; One paragraph calls residue 48 Arg48, others Lys48; source: E. coli BL21-AI carrying the pMALc2 construct, purified (amylose) as described [13]
B8: the “stoichiometry N” value in [6] was determined as 2. Also, the binding result in series [1] is reported as “binds”.

B9: MBP-Orf R103E (natural protein, bacteriophage λ)
chain: T2 sequence with A45Q, R103E
notes: Orf (NinB) of bacteriophage λ with R103E; Mutant derivative in pMALc2; source: E. coli BL21-AI carrying the pMALc2 construct, purified (amylose, heparin-agarose)
For B9, in series [6], the “stoichiometry N” value worked out at 2. In addition, the binding result in [1] is on record as “binds”.

B10: SS60-fluorescein (ssDNA)
DNA: TTTGGTCTAACTTTACCGCTACTAAATGCCGCGGATTGGTTTCGCTGAATCAGGTTATTA
With B10, the Kd worked out at 272 ± 20.4 nM in series [7] (setting [16]); 522 ± 12.4 nM in [8] (setting [16]); 4600 ± 275 nM in [9] (setting [16]); 622 ± 0.7 nM in [10] (setting [16]); 223 ± 72.6 nM in series [11] (setting [16]); 628 ± 99.9 nM in [12] (setting [16]). In addition, in [13] (setting [16]), the Kd stood at 3540 ± 288 nM. The binding result in [14] (setting [16]) is “no binding”.

B11: BB13 (structured_DNA)
DNA 1: B10 DNA
DNA 2: TAATAACCTGATTCAGCGAAACATTGTAGGTAAGCTTAGTAGCGGTAAAGTTAGACCAAA
With B11, in series [15] (central 13 nt bubble), the binding result is reported as “binds”.

B12: BB5 (structured_DNA)
DNA 1: B10 DNA
DNA 2: TAATAACCTGATTCAGCGAAACCAATCGCAACCATTTAGTAGCGGTAAAGTTAGACCAAA
Regarding B12, the binding result in series [15] (central 5 nt bubble) is reported as “binds”.

B13: BB20-fluorescein (structured_DNA)
DNA 1: B10 DNA
DNA 2: TAATAACCTGATTCAGCGAATGACCGATAACGTCCACTTGAGCGGTAAAGTTAGACCAAA
For the molecule B13, the Kd in [7] (setting [17]) turned out to be 264 ± 15.2 nM; in [8] (setting [17]) it was 540 ± 73.2 nM; in series [9] (setting [17]) it was 1619 ± 3.2 nM; in series [10] (setting [17]), 551 ± 6.4 nM; in series [11] (setting [17]) it was 173 ± 20.9 nM; in [12] (setting [17]), 285 ± 1.9 nM. Besides, in series [13] (setting [17]), the Kd turned out to be 1610 ± 418 nM. Moreover, the binding result in series [14] (setting [17]) was “no binding”.

The record behind these values is PMC4118853, “Phage Orf Family Recombinases: Conservation of Activities and Involvement of the Central Channel in DNA Binding” (PLoS ONE, 2014).
